Measurements published in the supplement of paper PMC7877785.
± gives the uncertainty stated by the source.

Experiment: self-splicing fitness, log relative to wild type (ln ratio); higher = more splicing; Tetrahymena group I intron in knt gene, E. coli kanamycin selection, DiMSum; sequences stand for … in CUCUCU…GGAGGGAAAAGUUAUCAGGCAUGCACCUGGUAGCUAGUCUUUAAACCAAUAGAUUGCAUCGGUUUAAAAGGCAAGACCGUCAAAUUGCGGGAAAGGGGUCAACAGCCGUUCAGUACCAAGUCUCAGGGGAAACUUUGAGAUGGCCUUGCAAAGGGUAUGGUAAUAAGCUGACGGACAUGGUCCUAACCACGCAGCCAAGUCCUAAGUCAACAGAUCUUCUGUUGAUAUGGAUGCAGUUCACAGACUAAAUGUCGGUCGGGGAAGAUGUAUUCUUCUCAUAAGAUAUAGUCGGACCUCUCCUUAAUGGGAGCUAGCGGAUGAAGUGAUGCAACACUGGAGCCGCUGGGAACUAAUUUGUAUGCGAAAGUAUAUUGAUUAGUUUUGGAGUACUCGUGGUCG
In short: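 The eight P1ex-region nucleotides of an intron in the knt kanamycin-resistance gene on pET-22b(+) were all randomised and the library put into E. coli BL21(DE3). Six replicate transformations were grown overnight at 37°C or 30°C on LB agar with or without 25 μg/mL kanamycin, together with 100 μg/mL carbenicillin, 50 μM IPTG and 0.2% rhamnose. Colonies were pooled and amplicon-sequenced on an Illumina HiSeq 2500. Fitness from DiMSum is the error-weighted combination of wild-type-normalised replicate fold changes, kanamycin over none.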

Row | Sequence | self-splicing fitness (ln) (30 °C) | self-splicing fitness (ln) (37 °C)
1 | ACUUAGCAAUAUUACGGGCC | -2.42 ± 0.28 | -2.35 ± 0.42
2 | UCAUAGCAAUAUUACGUCGC | -2.62 ± 0.3 | -2.78 ± 0.34
3 | CGUAAGCAAUAUUACGGGGC | -3.43 ± 0.26 | -2.35 ± 0.23
4 | AAACAGCAAUAUUACGAGUG | -2.71 ± 0.075 | -1.8 ± 0.074
5 | UCCUAGCAAUAUUACGUUAA | -3.69 ± 0.28 | -2.32 ± 0.26
6 | AUAUAGCAAUAUUACGGUGA | -1.72 ± 0.2 | -1.11 ± 0.2
7 | GGCGAGCAAUAUUACGAUGA | -2.08 ± 0.17 | -2.93 ± 0.33
8 | CAGAAGCAAUAUUACGUCAC | -3.02 ± 0.36 | -1.05 ± 0.25
9 | UUUGAGCAAUAUUACGGUCU | – | -2.63 ± 0.41
10 | UAUAAGCAAUAUUACGAUAG | -1.4 ± 0.16 | -0.486 ± 0.17
11 | AAAUAGCAAUAUUACGAUAC | -2.95 ± 0.22 | -2.64 ± 0.36
12 | GACGAGCAAUAUUACGUCUA | -2.4 ± 0.23 | -1.43 ± 0.13
13 | AGCCAGCAAUAUUACGCUGU | -3.57 ± 0.2 | -3.32 ± 0.19
14 | GCAAAGCAAUAUUACGGAUU | -0.922 ± 0.067 | -0.799 ± 0.1
15 | UCCCAGCAAUAUUACGUACC | – | 0.327 ± 0.33
16 | CGCCAGCAAUAUUACGAAUG | -0.783 ± 0.058 | 0.0658 ± 0.066
17 | GACGAGCAAUAUUACGGAUC | -2.68 ± 0.39 | -1.75 ± 0.44
18 | AGGAAGCAAUAUUACGCCAG | -2.89 ± 0.18 | -1.81 ± 0.22
19 | CCGUAGCAAUAUUACGACCU | -0.833 ± 0.34 | –
20 | AGAAAGCAAUAUUACGACCC | 0.302 ± 0.21 | -0.444 ± 0.27

Row | Sequence | self-splicing fitness (ln) (30 °C) | self-splicing fitness (ln) (37 °C)
21 | UUUGAGCAAUAUUACGUGUG | -3.37 ± 0.23 | -2.55 ± 0.33
22 | UAAUAGCAAUAUUACGGGGG | -3.12 ± 0.19 | -3.37 ± 0.39
23 | UGGCAGCAAUAUUACGUUCA | -0.133 ± 0.084 | 0.272 ± 0.1
24 | CGUAAGCAAUAUUACGGAGG | -2.16 ± 0.14 | -1.57 ± 0.17
25 | CCCUAGCAAUAUUACGUAAC | -3.66 ± 0.27 | -1.33 ± 0.18
26 | CGCUAGCAAUAUUACGCGUU | -1.99 ± 0.15 | -2.51 ± 0.29
27 | GGUGAGCAAUAUUACGGUGG | -3.06 ± 0.26 | -2.88 ± 0.32
28 | UUAUAGCAAUAUUACGACCU | -3.38 ± 0.29 | -0.509 ± 0.18
29 | GCUGAGCAAUAUUACGGAAU | -3.57 ± 0.25 | -1.3 ± 0.17
30 | CUGUAGCAAUAUUACGGCCC | – | -0.731 ± 0.38
31 | AACAAGCAAUAUUACGACGG | -2.3 ± 0.14 | -1.93 ± 0.12
32 | CGCCAGCAAUAUUACGAGCC | -1.63 ± 0.14 | -0.446 ± 0.18
33 | CCCGAGCAAUAUUACGAUCC | -2.76 ± 0.24 | -2.71 ± 0.27
34 | GCUUAGCAAUAUUACGUUAA | – | -2.84 ± 0.29
35 | CAAUAGCAAUAUUACGCCGA | -2.61 ± 0.26 | -1.59 ± 0.17
36 | AAGUAGCAAUAUUACGCGGG | -2.89 ± 0.19 | -2.84 ± 0.2
37 | GCUUAGCAAUAUUACGAAAU | -0.692 ± 0.076 | -0.498 ± 0.095
38 | GGAUAGCAAUAUUACGAUUU | 0.317 ± 0.072 | 0.459 ± 0.09
39 | CGAUAGCAAUAUUACGGCAU | -2.85 ± 0.21 | -2.54 ± 0.26
